Results on 11 molecules are retold here after US20260008856A1 (BLUEFIN BIOMEDICINE, published 2026).

Assay [1] has as its target T1, human IL1RAP on IL1RAP positive human cell lines (EOL-1, Karpas 299; HEK-Blue reporter cells) (human, UniProt Q9NPH3 21-570). The experiment in a line: cell-based or functional assay.
In assay [2] the target is T1, human IL1RAP on IL1RAP positive human …. The experiment in a line: cell-based or functional assay. The source holds these as a separate data set.
Assay [3] deals with T2, huIL1RAP ECD recombinant protein (human, UniProt Q9NPH3 21-367).
T2 construct: also called recombinant human IL1RAP-ECD; recombinant human IL1RAP; not shown: C-terminal histidine tag for purification
The experiment in a line: Octet BLI, antibody on Protein A biosensor, recombinant huIL1RAP ECD. As for the experimental part: Affinity: The affinity of antibodies to various recombinant IL1RAP protein was determined on an Octet Red™ instrument. After loading reagents into a 96-well plate, the Octet Red™ with Protein A-conjugated biosensors was programmed as follows: 30 seconds for baseline #1; 120 seconds to immobilize the antibody; 30 seconds for baseline #2; 300 seconds for association of antibody to recombinant IL1RAP; and 300-600 seconds for dissociation of recombinant IL1RAP from the antibody.
Background: In BLI a coated tip is dipped into the sample, and binding shifts an interference pattern.

For assay [4], the target named is T3, rat IL1RAP (Met1-Val570 plus Myc-DDK) on transfected 293 cells (Rattus norvegicus, UniProt Q63621 21-570).
T3 construct: whole, on cells; also called RR213032
Put plainly: flow cytometry on 293 cells expressing rat IL1RAP (293-puro-ratIL1RAP) vs 293T-puro [cont.]. How it is done: (§1) Staining for flow cytometry was performed in 1× cold PBS with 0.5% BSA. Primary antibodies (1 ug/ml) were incubated with live cells on ice for 30 minutes, after a brief wash, cells were incubated with Alexa Fluro® 488-conjugated anti-human IgG secondary antibody @1:1000 (709-546-149, Jackson ImmunoResearch). Acquisition of the data was performed on a MACSQuant® Flow Cytometers (Miltenyi Biotec) and analyzed with FlowJo software.

Assay [5] has as its target T4, mouse IL1RAP (Met1-Val570 plus Myc-DDK) on transfected 293 cells (Mus musculus, UniProt Q61730 21-570).
T4 construct: whole, on cells; also called MR223729
The experiment in a line: flow cytometry on 293 cells expressing mouse IL1RAP (293-puro-mouseIL1RAP) vs 293T-puro [cont.]. How it is done: as §1
A general note: In flow cytometry, cells or beads pass a laser one at a time.

For assay [6], the target named is T3, rat IL1RAP (Met1-Val570 plus Myc-DDK) …. Put plainly: flow cytometry on 293 cells expressing rat IL1RAP (293-puro-ratIL1RAP) vs 293T-puro. As for the experimental part:
as §1

In assay [7] the target is T4, mouse IL1RAP (Met1-Val570 plus Myc-DDK) …. Put plainly: flow cytometry on 293 cells expressing mouse IL1RAP (293-puro-mouseIL1RAP) vs 293T-puro. As for the experimental part: as §1
For assay [8], the target named is T1, human IL1RAP on IL1RAP positive human …. The experiment in a line: cell-based or functional assay. The source holds these as a separate data set.
Assay [9] has the same target. The experiment in a line: cell-based or functional assay. The source holds these as a separate data set.

In general, Kd refers to the free concentration of one partner at which half of the binding sites on the other are occupied at equilibrium, for simple one-to-one binding.

T3 sequence (Q63621 21-570): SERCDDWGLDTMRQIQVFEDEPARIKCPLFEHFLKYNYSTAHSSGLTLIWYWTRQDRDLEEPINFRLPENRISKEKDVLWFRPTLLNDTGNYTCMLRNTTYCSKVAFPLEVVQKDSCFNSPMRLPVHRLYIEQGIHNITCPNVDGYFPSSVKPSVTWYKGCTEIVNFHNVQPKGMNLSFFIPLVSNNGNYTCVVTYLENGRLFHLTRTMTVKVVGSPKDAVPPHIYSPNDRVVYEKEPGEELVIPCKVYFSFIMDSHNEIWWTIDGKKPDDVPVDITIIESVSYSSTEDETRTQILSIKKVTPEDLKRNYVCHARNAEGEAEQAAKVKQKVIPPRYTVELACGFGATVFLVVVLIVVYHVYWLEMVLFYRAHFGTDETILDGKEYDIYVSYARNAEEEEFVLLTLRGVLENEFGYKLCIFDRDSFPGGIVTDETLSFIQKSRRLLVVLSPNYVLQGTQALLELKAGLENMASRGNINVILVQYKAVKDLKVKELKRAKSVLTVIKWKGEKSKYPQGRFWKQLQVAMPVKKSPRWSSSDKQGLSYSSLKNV
T4 sequence (Q61730 21-570): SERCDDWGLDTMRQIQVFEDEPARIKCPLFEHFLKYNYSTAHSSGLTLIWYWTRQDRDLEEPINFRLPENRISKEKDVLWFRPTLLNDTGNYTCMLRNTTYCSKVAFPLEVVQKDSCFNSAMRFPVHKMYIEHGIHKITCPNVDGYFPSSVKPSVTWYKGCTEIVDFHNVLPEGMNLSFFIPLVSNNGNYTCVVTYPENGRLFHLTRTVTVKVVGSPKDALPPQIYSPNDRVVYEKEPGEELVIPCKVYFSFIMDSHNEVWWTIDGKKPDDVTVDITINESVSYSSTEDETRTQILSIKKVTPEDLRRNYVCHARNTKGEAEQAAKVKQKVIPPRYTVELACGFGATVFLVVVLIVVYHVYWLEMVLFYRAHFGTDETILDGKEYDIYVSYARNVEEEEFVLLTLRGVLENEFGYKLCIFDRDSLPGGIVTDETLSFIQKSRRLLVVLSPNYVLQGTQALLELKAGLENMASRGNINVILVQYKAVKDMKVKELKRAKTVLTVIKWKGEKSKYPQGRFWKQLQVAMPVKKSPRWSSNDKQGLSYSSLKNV

B1: 5G8_18A1 (antibody, V domains shown)
VH: QVELQESGPGLVKPSDTLSLTCTVTGGSISTYYWSWIRQPPGKGLEWIGYIFYTGTTNYNPSLKSRVTISVDASKNQFSLKLNSVTAADTAVYYCARDGSLDYWGQGALVTVSS
VL: DIQMTQSPSSLSASVGDRVTITCRASQSISNYLNWYQQKPGKAPKLLIFVASLLQSGVPSRFSGSGSGTDFTLTISSLQPEDFATYYCQQSYSTPFTFGPGTKLEIK
As for B1, in [1], the “EC50, inhibition of signalling by 0.5 ng/ml IL-1beta in HEK-Blue IL-1beta reporter cells (Abs. 620 nM)” value worked out at 0.58 nM. The “EC50, inhibition of signalling by 0.5 ng/ml IL-1a (IL-1alpha) in the HEK-Blue IL-1 reporter assay (Abs. 620 nM)” value in assay [2] was 0.83 nM. In addition, the Kd in [3] is 0.4 nM. The binding result in assay [4] and in [5] was “no binding (tested: 1 ug/ml)” in each case.

B2: 38E10_21C3 (antibody, V domains shown)
VH: EVQLLESGGGLVQPGGSLRLSCAASGFTFSNYAMTWVRQAPGKGLEWVSSISISRAGTYYADSVKGRFTISRDNSKNTLNLQMNSLRAEDTAEYYCAREYYYGMDVWGQGTTVTVSS
VL: EIVLTQSPATLSLSPGERATLSCRASQSVSSYLAWYQQKPGQTPRLLIYDASNRATGIPARFSGSGSGTDFTLTISSLETEDFAVYYCQQLINWPLTFGGGTKLEIK
notes: Recombinant human antibody
Take B2: the Kd in assay [3] came out at 2 nM. Moreover, the binding result in assay [6] and in [7] was “no binding (tested: 1 ug/ml)” in each case.

B3: 10C8_15A1 (antibody, V domains shown)
VH: QVQLVESGGGVVQPGRSLRISCAASGFTFRSYGMHWVRQAPGKGLEWVAIIWHDESYKYYVDSVKGRFTISRDNSKNTLYLQMNSLRAEDTAVYYCARGDYYGSGSYYDAFDIWGQGTMVTVSS
VL: DIQMTQSPSSLSASVGDRVIITCRASQGISNYLAWFQQKPGKCPNLLIYAASTLRSGVPSRFSGSGSGTDFTLTISSLQPEDVATYYCQKYNSAPYTFGQGTKVEIK
For the molecule B3, the dissociation constant Kd in assay [3] was 30 nM. For the same molecule, the binding result in [4] and in [5] was “no binding (tested: 1 ug/ml)” in each case.

B4: 39G1_21C4 (antibody, V domains shown)
VH: QVQLQESGPGLVKPSETLSLTCAVSGYSASGVYYWGWIRQPPGKGLEWIGNIYHSGSTYYNPSLERRVSISLDTSKNHFSLRLNFVTAADTAVYYCARDRFDAFDIWGQGTMVTVSS
VL: EIVMTQSPATLSVSPGERATLSCRASQSINNILAWYQQKPGQAPRLLIYGASTRATGIPARFSGSGSGTEFTLTISSLQSEDFAVYYCQQYNNWPLTFGGGTKVEIK
B4: the Kd in [3] is 1.6 nM. The binding result in [4] is “no binding (tested: 1 ug/ml)”.

B5: 34H8_21B4 (antibody, V domains shown)
VH: QVQLQESGPGLVKPSETLSLTCAVSGYSASGLYYWAWIRQPPGKGLEWIGNIYHSGRTYYNPSLESRVSISLDTSKHQVSLKLKSVTYADTAVYFCARDRFDGFDIWGQGTMVTVSS
VL: EIVMTQSPATLSVSPGERATLSCRASQTINNILAWYQQKPGQAPRLLIYGASTRATGIPARFSGSGSGTEFTLTISSLQSEDFAVYYCQQYNNWPLTFGGGTKLEIK
notes: Recombinant human antibody
Take B5: the Kd in assay [3] was 5 nM.

B6: 37D11_21C2 (antibody, V domains shown)
VH: QVQIKESGPGLVKPSETLSLTCAVSGFSFSSGYYWGWIRQPPGKGLEWLGSFFHNGNTYYNPSLRSRVTISVDTSKNHFSLKLTSVTAADTAVYYCAGFGDLPHYHYYVMDVWGQGTTVTVSS
VL: EIVLTQSPATLSLSPGERATLSCRASQSVSSYLAWYQQKPGQAPRLLIYDASNRAIGIPARFSGSGSGTDFTLTISSLEPEDFAVYYCQQRSNWPPYTFGQGTKLEIK
On to B6, for which, in assay [3], the equilibrium dissociation constant (Kd) came to 13 nM. Further, the binding result in assay [4] and in assay [5] was “no binding (tested: 1 ug/ml)” in each case.

B7: 42D10_28A5 (antibody, V domains shown)
VH: QVQPKESGPGVVKPSETLSLTCAVSGFPISRGYYWGWIRQPPGKGLEWIGNIFHSGTTYYNPSLKSRVTISVDTSKNQISLKLTSVTAADTAVYYCVGFGDLPHYQYYVMDIWGQGTTVTVSS
VL: EIVLTQSPATLSLSPGERATLSCRASQSVSSYLAWYQQKPGQAPRLLIYDASNRATGIPARFSGSGSGTDFTLTISSLEPEDFAVYYCQQRSNWPPYTFGQGTKLEIK
notes: Recombinant human antibody
As for B7, the Kd in assay [3] was 7 nM.

B8: 37E10_15B5 (antibody, V domains shown)
VH: QVQLVESGGGVVQPGRSLRLSCAASGFTFRSHGMHWVRQAPGKGLEWVAVIWYDGSSEYYADSVKGRFTISRDNSKNTLYLQMNSLRAEDTAVYYCARENVYGSGWFFDYWGQGTLVTVSS
VL: EIVMTQSPATLSVSPGERASLSCRASQSVGSNLAWYQQRPGQAPRLLIFGASTRATGIPARFSGSRSGTEFTLTISSLQSEDFALYYCQQYNNWPPWTFGQGTKLEIK
notes: also called BFB759
As for B8, in [8], the “EC50 against IL-1alpha signaling, IL-1 reporter assay” value was less than 1 nM and the “EC50 against IL-1beta signaling, IL-1 reporter assay” value is less than 1 nM. Moreover, the “EC50, inhibition of signalling by 0.5 ng/ml IL-1beta in HEK-Blue IL-1beta reporter cells (Abs. 620 nM)” value in assay [1] came to 0.15 nM. Moreover, the “EC50, inhibition of signalling by 0.5 ng/ml IL-1a (IL-1alpha) in the HEK-Blue IL-1 reporter assay (Abs. 620 nM)” value in assay [2] was determined as 0.19 nM. Further, the “EC50, inhibition of signalling by 0.5 ng/ml IL-33 in HEK-Blue IL-33 reporter cells (Abs. 620 nm); the curve levels off at about 0.4, not at 0” value in assay [9] was found to be 0.32 nM. For the same molecule, the Kd in assay [3] worked out at 0.3 nM. Besides, the binding result in assay [4] is listed as “no binding (tested: 1 ug/ml)”. Also, the binding result in assay [5] is recorded as “no binding (tested: 1 ug/ml)”.

B9: 44E5_15C5 (antibody, V domains shown)
VH: QVQLVESGGGVVQPGRSLRLSCAASGFTFRSHGMHWVRQAPGKGLEWVAVIWYDGSSDYYADSVKGRFTISRDNSKNTLFLQMNSLSAEDTAVYYCARENVYGSGWFFDYWGQGTLVTVSS
VL: EIVMTQSPATLSVSPGERASLSCRASQSVGSNLAWYQQKPGQAPRLLIFGASTRATGIPARFSGSRSGTEFTLTISSLQSEDFALYYCQQYNNWPPWTFGQGTKLEIK
On to B9, for which, in assay [8], the “EC50 against IL-1alpha signaling, IL-1 reporter assay” value is less than 1 nM. In [8], the “EC50 against IL-1beta signaling, IL-1 reporter assay” value was less than 1 nM. The “EC50, inhibition of signalling by 0.5 ng/ml IL-1beta in HEK-Blue IL-1beta reporter cells (Abs. 620 nM)” value in [1] came to 0.17 nM. Moreover, the “EC50, inhibition of signalling by 0.5 ng/ml IL-1a (IL-1alpha) in the HEK-Blue IL-1 reporter assay (Abs. 620 nM)” value in [2] was found to be 0.18 nM. Besides, the “EC50, inhibition of signalling by 0.5 ng/ml IL-33 in HEK-Blue IL-33 reporter cells (Abs. 620 nm); the curve levels off at about 0.4, not at 0” value in assay [9] came out at 0.44 nM. In addition, the Kd in assay [3] amounted to 0.4 nM. Besides, the binding result in assay [4] and in assay [5] was “no binding (tested: 1 ug/ml)” each time.

B10: 5D12_18A4 (antibody, V domains shown)
VH: QVQLQESGPGLVKPLGTLSLTCAVSGGSISNSNWWSWVRQPPGKGLEWIGEIYHSGSTNYNPSLKSRVTIALDWSKNQFSLQLRSVTAADTAVYYCARYGSGPFGGDCWGQGTLVTVSS
VL: DIQLTQSPSFLSASVGDRVTISCRASQGISSYLAWYQQKPGKAPKLLIYAASTLQGGVPSRFSGSGSGTTFTLTISSLQPEDFATYYCQQLNTYPFTFGPGTKLEIK
notes: Recombinant human antibody
In the case of B10, the Kd in assay [3] amounted to 19 nM. Also, in assay [4], the binding result was “no binding (tested: 1 ug/ml)”.

B11: 36A10_21B6 (antibody, V domains shown)
VH: QGQVVESGGGVVQPGRSLRLSCAASGFTFSSYTLHWVRQAPGKGLEWVAVIWYDGSNKYYVDSVKGRFTISRDNSKNTLYLQMNSLRAEDTAVYYCAREYGSGSYYNVYYGMDVWGQGTTVTLSS
VL: DIVMTQSPLSLPVTPGEPASISCRSSQSLLHSNGYNYLDWYLQKPGQSPHLLIYLASNRASGVPDRFSGSGSGTDFTLKISRVEAEDVGFYYCMQTLQIPLTFGGGTKVEIK
Regarding B11, the “EC50, inhibition of signalling by 0.5 ng/ml IL-1beta in HEK-Blue IL-1beta reporter cells (Abs. 620 nm); row printed as 36A10_21C2” value in assay [1] turned out to be 0.29 nM. Also, in [2], the “EC50, inhibition of signalling by 0.5 ng/ml IL-1a (IL-1alpha) in the HEK-Blue IL-1 reporter assay (Abs. 620 nm); row printed as 36A10_21C2” value was determined as 0.66 nM. Moreover, the “EC50, inhibition of signalling by 0.5 ng/ml IL-33 in HEK-Blue IL-33 reporter cells (Abs. 620 nM)” value in assay [9] was determined as 1.76 nM. Also, in assay [3], the Kd worked out at 0.4 nM. Besides, the binding result in [4] and in assay [5] was “no binding (tested: 1 ug/ml)” each time.
